Assay results reported in patent publication US20250101134A1, “ANAPLASTIC LYMPHOMA KINASE ANTIBODIES AND METHODS OF USE THEREOF” (The Children's Hospital of Philadelphia, priority 2022, published 2025).

Tests used:
[1] = biological target: T1, ALK extracellular domain expressed on the cell surface of 293T cells (293T-ALK) (Homo sapiens, UniProt Q9UM73); test: cell-based or functional assay
[2] = biological target: cell surface ALK on neuroblastoma cells (IMR32, SY5Y-D3, SY5Y) (human) (UniProt Q9UM73); test: cell-based or functional assay
293T cells [3] = test: Flow cytometry binding of VHs to 293T cells (non-specific binding); settings: VH at 1 μM, anti-FLAG-PE detection
Method: (§1) FIG. 1A provides a schematic of ALK. MAM1, LDLa, MAM2, G-rich, G-T domains and full-length ALK extracellular domain (ALK-Ecto) were expressed separately for phage panning. Briefly, 293T and 293T-ALK cells were stained with different VH antibodies at a concentration of 1 μM in […] PBS for 30 minutes on ice. The cells were washed with 1 mL PBS three times and incubated with anti-FLAG-PE antibody (1:200, BioLegend) for 30 minutes on ice. The FLAG tag comprises the sequence: DYKDDDDK (SEQ ID NO: 9). The stained cells were then washed with 1 mL PBS three times. Antibody binding was detected on a BD™ LSR II (BD Biosciences, San Jose, CA). Fluorescence activated cell sorting (FACS) data analysis was performed using FlowJo_V10_CL.
(§2) FIGS. 1B and 1C show the flow cytometry results with various VHs binding to ALK extracellular domain expressed on the cell surface of 293T cells (293T-ALK). VH9 and VH20 were identified with the G-rich domain antigen while VH5 and VH78 were identified with the G-T domain antigen.

[4] = Aggregation by dynamic light scattering (DLS); type: physicochemical; settings: 5 mg/mL in PBS, 37° C., day 0 to day 14
Method: The 4 VHs were studied by dynamic light scattering (DLS). Briefly, VH antibodies were buffer changed with PBS and filtered with a […] filter.
Antibody concentration was adjusted to 5 mg/mL. 500 μL samples were incubated at 37° C. for DLS. Samples were measured at day 0, day 1, day 4, day 7, and day 14 on Zetasizer Nano-ZS ZEN 3600 (Malvern Instruments Limited; Malvern, UK) to determine the size distributions of protein particles.

[5] = Size exclusion chromatography (SEC); type: physicochemical; settings: Superdex 200 Increase 10/300 GL, DPBS
Method: VH20 was also studied by size exclusion chromatography (SEC). 200 μL (1 μg/mL) filtered samples were used for analysis. A Superdex® 200 Increase 10/300 GL column (GE Healthcare, Cat. No. 28990944) was used for the SEC. The column was calibrated with protein molecular mass standards of ferritin (440 kDa), aldolase (158 kDa), conalbumin (75 kDa), ovalbumin (44 kDa), carbonic anhydrase (29 kDa), and ribonuclease A (13.7 kDa). Protein was eluted by Dulbecco's phosphate-buffered saline (DPBS) buffer at a flow rate of 0.5 mL/minute.
Size exclusion chromatography (SEC) was also performed to characterize VH20-OKT3-Fc BiTE. Briefly, 200 μL (1 μg/mL) filtered samples were used for analysis. Superdex® 200 Increase 10/300 GL columns (GE Healthcare, Cat. No. 28990944) were used. The column was calibrated with protein molecular mass standards of ferritin (440 kDa), aldolase (158 kDa), conalbumin (75 kDa), ovalbumin (44 kDa), carbonic anhydrase (29 kDa), and ribonuclease A (13.7 kDa). Protein was eluted by DPBS buffer at a flow rate of 0.5 mL/minute.

ALK = test: BLItz competition with KTN0239-IgG for ALK; type: binding; settings: Protein A biosensor, KTN0239-IgG loaded, then ALK, then VH20
Source text: The ability of VH20 to compete with KTN0239 was also studied. KTN0239 is a humanized variant of KTN0125 (Sano et al. (2016) Cancer Res., 76(14 Suppl):Abstract2690) and can bind the G rich domain of ALK. A Protein A biosensor (18-5010, BLItz® system, ForteBio; Freemont, CA) was used to immobilization KTN0239-IgG. DPBS (pH=7.4) was used for the baseline and determine dissociation. The detection conditions used were (I) baseline 30 seconds; (II) loading KTN0239-IgG for 120 seconds; (III) baseline 30 seconds; (IV) association for 120 seconds with ALK; and (V) association for 120 seconds with VH20.

[6] = biological target: T2, cell surface ALK on IMR32 cells (Homo sapiens, UniProt Q9UM73); test: FACS binding to IMR32 cells; settings: 1 μM, positive cell line
T2 construct: endogenous in cells; host or cells: IMR32
Method: (§3) The ability of VH20 bind ALK expressing cells was also studied by FACS. SK-N-AS (negative cell line), IMR32 (positive cell line), SY5Y-D3 (positive cell line) cells were stained with VH20 at a concentration of 1 μM in 200 μL PBS for 30 minutes on ice. The cells were washed with 1 mL PBS three times and incubated with anti-Flag-PE antibody (1:200, BioLegend) for 30 minutes on ice. The cells were again washed with 1 mL PBS three times. Antibody binding was detected on a BD™ LSR II (San Jose, CA). FACS data analysis was performed using FlowJo_V10_CL.

[7] = test system: cell surface ALK on SY5Y-D3 cells; test: FACS binding to SY5Y-D3 cells; settings: 1 μM, positive cell line
Method: as §3

SK-N-AS cells = test: FACS binding to SK-N-AS cells (negative cell line); settings: 1 μM
Method: as §3

293T-ALK cells [8] = test: Internalization of pHrodo Deep Red labelled VH20, 293T-ALK; type: cell-based; settings: pHrodo Deep Red conjugated VH20, 24 hours, flow cytometer
Method: (§4) VH20 internalization was also characterized. For the internalization studies, VH20 was conjugated with pHrodo™ Deep Red dye using the pHrodo™ Deep Red Antibody Labeling Kit (Thermo). The conjugated VH20 was incubated with 293T and 293T-ALK cells for 24 hours at different concentrations. VH20 internalization was measured by a flow cytometer.

293T cells [9] = test: Internalization of pHrodo Deep Red labelled VH20, 293T; type: cell-based; settings: pHrodo Deep Red conjugated VH20, 24 hours, flow cytometer
Method: as §4

[10] = biological target: T3, ALK-Fc, a fusion of the ALK extracellular domain and human IgG1 Fc (human, UniProt Q9UM73 19-1038); test: ELISA, ALK-Fc coated, anti-Flag-HRP detection
T3 construct: not shown: human IgG1 Fc
Method: The VHs were further characterized. First, the binding affinities of the VHs were studied in an ELISA assay using a fusion protein comprising the ALK extracellular domain fused to the human IgG1 Fc (ALK-Fc). ELISA plates (Corning 3690; Tewksbury, MA) were coated with 50 μl antigen (5 μg/ml diluted with 1×PBS) at 4° C. overnight. The next day, blocking was performed with 150 μL 5% milk-PBS (Bio-RAD; Hercules, CA) at room temperature for two hours. Then, the plates were washed with 0.05% PBST three times. 3-fold serial diluted VH antibodies (in 5% PBS-Milk) was added into each well and incubated at room temperature for 1 hour and then washed with PBST 4 times. Next, 50 μL anti-Flag-HRP (1:1000 dilution in 5% PBS-Milk, Thermo; Waltham, MA) was added into each well and incubated at room temperature for 1 hour and then washed 5 times with PBST. 50 μL 3,3′,5,5′-tetramethylbenzidine (TMB) substrate (Sigma; St. Louis, MO) was added into each well and color was allowed to develop for 1-2 minutes before stopping with 50 μL H₂SO₄ (1M, Sigma). Plates were read at 450 nm absorbance. The ELISA results were analyzed using GraphPad Prism 9.0.2.

[11] = biological target: T1, ALK extracellular domain expressed on the cell surface of 293T cells (293T-ALK); test: Flow cytometry binding of VHs to 293T-ALK cells; parameters: expressed in transfected cells; host or cells: 293T; settings: VH at 1 μM, anti-FLAG-PE detection
Method: as §1, §2

293T-ALK cells [12] = test: Anti-ALK CAR-T cell cytotoxicity (LDH release); type: cell-based; settings: CAR-T cells comprising the VH, effector:target 1.25:1 to 20:1, 48 hours
Method: The cytotoxicity of anti-ALK CAR-T cells against 293T and 293T-ALK cells was also studied. Anti-ALK CAR-T cells (effector cells) were incubated with 293T and 293T-ALK cells at the effector: target ratios of 1.25:1, 2.5:1, 5:1, 10:1 and 20:1 for 48 hours in a 96-well cell culture plate (Corning). The co-cultures of CAR-T cells with 293T cells were used as negative controls. Cytotoxicity was determined by detecting specific lactate dehydrogenase (LDH) released into the medium from the target cells with cytotoxicity LDH detection kit (Promega) according to the manufacturer's instructions. Percent cytotoxicity was calculated with the following formula: Cytotoxicity (%)=(Experimental lysis−Effector spontaneous lysis−Target spontaneous lysis)/(Target maximum lysis−Target spontaneous lysis)×100%. Anti-ALK CAR-T cells were co-cultured with 293T cells as negative controls.

T1 sequence (Q9UM73 19-1038): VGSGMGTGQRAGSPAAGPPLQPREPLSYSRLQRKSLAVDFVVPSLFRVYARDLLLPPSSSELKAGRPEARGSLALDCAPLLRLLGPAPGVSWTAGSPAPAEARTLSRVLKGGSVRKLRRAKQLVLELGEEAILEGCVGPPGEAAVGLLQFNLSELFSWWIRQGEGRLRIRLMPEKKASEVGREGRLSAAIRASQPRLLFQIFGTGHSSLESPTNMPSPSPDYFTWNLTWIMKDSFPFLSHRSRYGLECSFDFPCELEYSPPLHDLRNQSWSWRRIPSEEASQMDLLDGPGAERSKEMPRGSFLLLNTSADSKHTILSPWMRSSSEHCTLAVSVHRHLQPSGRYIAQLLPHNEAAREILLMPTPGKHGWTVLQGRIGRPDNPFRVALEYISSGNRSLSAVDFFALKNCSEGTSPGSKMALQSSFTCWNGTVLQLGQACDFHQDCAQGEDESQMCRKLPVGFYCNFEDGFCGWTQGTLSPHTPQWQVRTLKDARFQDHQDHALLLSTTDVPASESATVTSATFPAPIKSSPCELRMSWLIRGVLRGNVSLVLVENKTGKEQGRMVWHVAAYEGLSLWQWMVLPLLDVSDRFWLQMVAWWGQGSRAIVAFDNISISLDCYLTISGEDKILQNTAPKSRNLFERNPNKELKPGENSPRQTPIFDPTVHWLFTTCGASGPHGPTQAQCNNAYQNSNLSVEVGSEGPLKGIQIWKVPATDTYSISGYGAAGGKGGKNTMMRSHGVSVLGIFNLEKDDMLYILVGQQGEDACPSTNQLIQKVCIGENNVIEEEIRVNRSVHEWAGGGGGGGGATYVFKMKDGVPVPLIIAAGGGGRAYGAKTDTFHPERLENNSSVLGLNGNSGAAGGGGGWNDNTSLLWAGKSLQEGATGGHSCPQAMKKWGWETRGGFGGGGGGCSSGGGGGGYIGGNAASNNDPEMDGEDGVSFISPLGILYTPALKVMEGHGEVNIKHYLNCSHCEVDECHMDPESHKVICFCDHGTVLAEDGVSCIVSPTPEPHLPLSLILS
T3 sequence (Q9UM73 19-1038): as above
Chain of cell surface ALK on neuroblastoma cells (IMR32, SY5Y-D3, SY5Y) (human) (Q9UM73 19-1620): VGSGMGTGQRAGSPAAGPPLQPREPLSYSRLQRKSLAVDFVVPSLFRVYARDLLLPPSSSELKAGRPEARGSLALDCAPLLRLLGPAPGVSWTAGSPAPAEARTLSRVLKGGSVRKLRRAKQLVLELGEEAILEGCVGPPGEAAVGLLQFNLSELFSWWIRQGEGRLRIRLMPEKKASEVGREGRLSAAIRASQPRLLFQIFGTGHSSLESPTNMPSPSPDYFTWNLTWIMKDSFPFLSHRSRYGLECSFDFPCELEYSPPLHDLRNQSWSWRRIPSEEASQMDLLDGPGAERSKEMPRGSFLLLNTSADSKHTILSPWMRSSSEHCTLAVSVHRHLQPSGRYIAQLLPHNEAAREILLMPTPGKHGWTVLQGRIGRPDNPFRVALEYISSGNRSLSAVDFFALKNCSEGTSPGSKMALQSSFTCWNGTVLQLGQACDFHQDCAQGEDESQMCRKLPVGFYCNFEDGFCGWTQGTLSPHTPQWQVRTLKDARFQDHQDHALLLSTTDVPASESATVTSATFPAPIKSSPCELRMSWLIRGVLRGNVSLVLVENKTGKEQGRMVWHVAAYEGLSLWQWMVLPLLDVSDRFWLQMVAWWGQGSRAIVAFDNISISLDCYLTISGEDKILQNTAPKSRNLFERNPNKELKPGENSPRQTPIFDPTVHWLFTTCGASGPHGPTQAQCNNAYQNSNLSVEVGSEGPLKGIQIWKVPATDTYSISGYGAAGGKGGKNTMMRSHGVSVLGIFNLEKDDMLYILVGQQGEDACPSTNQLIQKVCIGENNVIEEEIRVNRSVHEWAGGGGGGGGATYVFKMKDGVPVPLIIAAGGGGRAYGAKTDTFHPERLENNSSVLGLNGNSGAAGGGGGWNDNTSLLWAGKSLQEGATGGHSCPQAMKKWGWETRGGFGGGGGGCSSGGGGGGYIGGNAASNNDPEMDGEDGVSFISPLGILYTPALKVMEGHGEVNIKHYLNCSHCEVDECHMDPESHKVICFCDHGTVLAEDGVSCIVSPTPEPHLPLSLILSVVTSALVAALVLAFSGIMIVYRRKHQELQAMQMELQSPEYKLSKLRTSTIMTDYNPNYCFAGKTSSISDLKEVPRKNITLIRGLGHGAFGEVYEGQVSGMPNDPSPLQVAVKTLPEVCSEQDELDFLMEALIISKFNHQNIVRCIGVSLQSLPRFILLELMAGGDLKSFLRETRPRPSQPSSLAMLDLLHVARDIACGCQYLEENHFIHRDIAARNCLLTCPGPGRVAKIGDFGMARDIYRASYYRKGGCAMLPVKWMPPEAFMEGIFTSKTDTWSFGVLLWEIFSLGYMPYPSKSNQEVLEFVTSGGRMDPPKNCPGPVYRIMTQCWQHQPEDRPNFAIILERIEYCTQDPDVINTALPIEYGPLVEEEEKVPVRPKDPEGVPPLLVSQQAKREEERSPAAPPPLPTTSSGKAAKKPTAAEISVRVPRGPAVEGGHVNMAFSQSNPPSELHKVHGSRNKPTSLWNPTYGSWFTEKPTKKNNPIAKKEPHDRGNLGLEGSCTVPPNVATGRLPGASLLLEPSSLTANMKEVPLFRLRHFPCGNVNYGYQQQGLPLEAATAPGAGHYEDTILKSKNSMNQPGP
Chain of cell surface ALK on SY5Y-D3 cells (Q9UM73 19-1038 limits assumed): as the sequence (Q9UM73 19-1038) above
T1 sequence (Q9UM73 733-960 limits assumed): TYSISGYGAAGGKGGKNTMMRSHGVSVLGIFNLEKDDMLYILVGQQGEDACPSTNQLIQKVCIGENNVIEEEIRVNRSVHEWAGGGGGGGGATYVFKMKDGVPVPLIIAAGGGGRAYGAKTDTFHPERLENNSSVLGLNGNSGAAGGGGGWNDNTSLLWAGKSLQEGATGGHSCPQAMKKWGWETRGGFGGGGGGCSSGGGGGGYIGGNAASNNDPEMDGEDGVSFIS
T2 sequence (Q9UM73 19-1620): as the sequence (Q9UM73 19-1620) above

Molecule	cytotoxicity IC50 (LDH release, activated Pan-T cells, E:T=4:1, 24 hours) [1] [pM]	cytotoxicity IC50 on IMR32 cells (LDH release, activated Pan-T cells, E:T=4:1, 24 hours) [2] [pM]	cytotoxicity IC50 on SY5Y cells (LDH release, activated Pan-T cells, E:T=4:1, 24 hours) [2] [pM]	non-specific binding with 293T cells (293T cells [3])	aggregation by DLS [4]	oligomeric state by SEC [5]	competition with KTN0239-IgG (ALK)	binding cell surface ALK on IMR32 cells [6]	binding cell surface ALK on SY5Y-D3 cells [7]	binding to SK-N-AS cells (SK-N-AS cells)	internalization into 293T-ALK cells (293T-ALK cells [8])	non-specific internalization in 293T cells (293T cells [9])	EC50 [10] [pM]	binding with 293T-ALK cells [11]	cytotoxicity of anti-ALK CAR-T cells (293T-ALK cells [12])
VH20-OKT3-Fc BiTE (bispecific antibody, part only; not given: anti-CD3 scFv, linkers and Fc, not shown: a dimerising Fc or GST) chain (part 1 of 2), part: EVQLVESGGGVVQPGRSLRLSCAASGFTFSSYAMHWVRQAPGKGLEWVAAIWYDGSNQYYADSVKGRFTISRDDSTNTLYLQMNSLRAEDTALYYCAKSSYYDSSGYYFPYGYWGQGTLVTVSS chain (part 2 of 2), part: HHHHHH	10	100	150												
VH20 (other, Single-domain antibody (isolated VH domain) found by phage panning on the ALK G-rich domain antigen; For the internalization assay it was labelled with pHrodo Deep Red dye) VH: EVQLVESGGGVVQPGRSLRLSCAASGFTFSSYAMHWVRQAPGKGLEWVAAIWYDGSNQYYADSVKGRFTISRDDSTNTLYLQMNSLRAEDTALYYCAKSSYYDSSGYYFPYGYWGQGTLVTVSS				no significant non-specific binding	lower aggregation	dimer	not in competition	capable of binding	capable of binding	not	effectively internalized	no non-specific internalization was detected	~400	good binding	
VH78 (other, Single-domain antibody (isolated VH domain) found with the ALK G-T domain antigen) VH: EVQLVESGGGVVQPGRSLRLSCAASGFTFSSYAMHWVRQAPGKGLEWMGIIYPGDSDTRYSPSFQGHVTISRDDSTNTLYLQMNSLRAEDTATYYCARERGWQDAFDIWGQGTLVTVSS				no significant non-specific binding									~1320	good binding	greater cytotoxicity
